From patent publication KR20220116962A (dated 2022)

Tests used:
[1] = molecular target: T1, GPR87(N)-Streptavidin (인간 GPR87 N-말단 세포외부위 영역과 STV 융합 항원) (human); experiment: single-clone phage ELISA after 4 rounds of biopanning
T1 construct: Purified on Ni-NTA, so a His tag is implied but not described; also called GPR87-STV
T1 chain: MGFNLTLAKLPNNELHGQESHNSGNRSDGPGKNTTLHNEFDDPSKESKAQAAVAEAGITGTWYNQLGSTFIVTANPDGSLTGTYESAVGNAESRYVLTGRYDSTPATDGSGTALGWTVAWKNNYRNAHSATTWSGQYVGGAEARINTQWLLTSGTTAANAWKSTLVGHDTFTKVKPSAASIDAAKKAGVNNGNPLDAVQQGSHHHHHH

[2] = molecular target: T2, GPR87(N)-GST (인간 GPR87 N-말단 세포외부위 영역과 GST 융합 항원) (human); experiment: as above
T2 construct: also called GPR87-GST

[3] = molecular target: T1, GPR87(N)-Streptavidin (인간 GPR87 N-말단 …); experiment: ELISA, antigen coated, IgG titrated; apparent equilibrium dissociation constant
[4] = molecular target: T2, GPR87(N)-GST (인간 GPR87 N-말단 세포외부위 영역과 …); experiment: as above

B1: B1 (scFv), phage-displayed clone (scFv)
scFv: EVQLVESGGGLVQPGRSLRLSCKASGFNFDEYALSWVRQAPGKGLEWVGFIRSKAYRETTEYAASVKGRCTISRDDSKSIAYLLMNSLRAEDTAVYYCARGHTPQRPYFDEWGQGTLVTVSSGGGSSGGGGSGGGGSGGGGSDIQMTQSPSFLSASVGDRITITCRASQSVGTYVNWYQQKLGKAPKLLIYTASTLQSGVPARFSGSGSGTEFTLTINGLQPEDFATYYCQQSYRPHFLTFGGGTQLTVLG
binding result [1]: binds
binding result [2]: binds

B2: 단일클론항체 B1 (IgG) (antibody, V domains shown)
VH: EVQLVESGGGLVQPGRSLRLSCKASGFNFDEYALSWVRQAPGKGLEWVGFIRSKAYRETTEYAASVKGRCTISRDDSKSIAYLLMNSLRAEDTAVYYCARGHTPQRPYFDEWGQGTLVTVSS
VL: DIQMTQSPSFLSASVGDRITITCRASQSVGTYVNWYQQKLGKAPKLLIYTASTLQSGVPARFSGSGSGTEFTLTINGLQPEDFATYYCQQSYRPHFLTFGGGTQLTVLG
notes: also called B1 항체
Kd [3]: 19.9 nM
Kd [4]: 18.1 nM

B3: 단일클론항체 A5 (IgG) (antibody, V domains shown)
VH: QVQLVQSGPGLVKPSETLSLTCSVSGGSMTSYYWSWVRQPPGKGLEWMGYVFHSGITNYSPSLKSRVTMSVDTSKNQFSLKLKSVTAVDTAVYYCAKKSGTSKKPIDYWGQGTTVTVSS
VL: DIVMTQSPSSLSASVGDRITITCRASQSVGTYVNWYQHKPGKAPKLLIYDASNLETGVPSRFSGSGSVTDFTLTITNLQPEDSATYYCLQHKNYPLTFGGGTKVEIKR
notes: also called A5 항체
Kd [3]: 14.7 nM
Kd [4]: 13.3 nM

B4: A5 (scFv), phage-displayed clone (scFv)
scFv: QVQLVQSGPGLVKPSETLSLTCSVSGGSMTSYYWSWVRQPPGKGLEWMGYVFHSGITNYSPSLKSRVTMSVDTSKNQFSLKLKSVTAVDTAVYYCAKKSGTSKKPIDYWGQGTTVTVSSGGGSSGGGGSGGGGSGGGGSDIVMTQSPSSLSASVGDRITITCRASQSVGTYVNWYQHKPGKAPKLLIYDASNLETGVPSRFSGSGSVTDFTLTITNLQPEDSATYYCLQHKNYPLTFGGGTKVEIKR
binding result [1]: binds
binding result [2]: binds
